Measured values published in patent US20240026407A1, “MODIFICATION OF SAPONINS” (GLAXOSMITHKLINE BIOLOGICALS SA, priority 2020, published 2024).

Legend:
Format in all cases: biochemical, Quillaja saponaria
[1] = Experiment 6-1: screening of rhamnosidases for derhamnosylation of saponins in treated bark extract (2%), desglucosyl-QS-17 2134 to QS-21 1988 (PAR %); conditions: TBE 2%, pH 7.5, 30 degC, 18 h; TIC peak area ratio percent, LCMS/MS; negative controls 2.719, 2.158
[2] = Experiment 6-1: specificity of rhamnosidases towards other rhamnose residues (C3 saccharide rhamnose, C28 saccharide rhamnose); conditions: TBE 2%, pH 7.5, 30 degC, 18 h; LCMS/MS; negative controls 0.18, 0.17
[3] = Experiment 6-1: screening of rhamnosidases for derhamnosylation of saponins in treated bark extract (2%), QS-17 2310 to QS-18 2164 (PAR %); conditions: TBE 2%, pH 7.5, 30 degC, 18 h; TIC peak area ratio percent, LCMS/MS; negative controls 3.061, 2.429
[4] = Experiment 6-1: screening of rhamnosidases for derhamnosylation of saponins in treated bark extract (2%), QS-17 2296 to QS-18 2150 (PAR %); conditions: TBE 2%, pH 7.5, 30 degC, 18 h; TIC peak area ratio percent of rhamnosylated starting saponin to derhamnosylated product, LCMS/MS; negative controls 4.876, 5.225

Row | Molecule | Peak75 (PAR %) [1] | ratio PP/QS-21 [2] | Peak57 (PAR %) [3] | QS-17 (PAR %) [4]
1 | 1011 (protein, listed as Paenibacillus sp.) MQSNTAVLLKGGDAVYMKVKGDTDNMAAKDWGDWSARWIWLQEEQGNADKDARHERVYFRRVFELPAGTGKAYSLNMAITGDSRYRLFVNGQRQWAGPCKGHEHVQYYEEFNLEGILQPGINVIAVTVVHYAGTAPFEMGEDGPLSVWRSEQGGLLVEAEITADGQLVQELPTDTSWKAIRDLSYRLRPFPMMRWMGGLEEAAGDTALRDWTLPEYDDSAWSAARIVQPVRDDYGQLTPWQLERRPVPLLYEQEQCFWKLMRSSCGEGKALFTAGHRLELRDGASSTVPSIAGPAAEGVLVQAGQQLWLELDAGELTTGYLQLKLQGGGGSLITLQYAECYEEETGDEEVRRKAVRDEMREQVLRGGYDSYRPAGYGTEDQPEVYEPFWFRTFRYVRLEVHAGHEPLRITGINYRETGYPLQLQGSFHCSDERYNRLWELSVRTLSRCMHETYEDTPYYEQLQYTMDTRLMMEFTYLLSGDDRLARRAMEDYRASQLPNGMLQSRYPSVLPQVIPSFSLYWIGMIHDHYRVFRDLTLVKHYRTAMLSVLDWFDQRLTPEGLVDRTPRQYWNYYDWVEEWPLGAPDCTNEAPATLMSLMYAFALGQAAELLEASGWTQIAAELRQRKAAVNAAVLDNCRQADGPLFRDSPEAGPEVQLSQHTQVWAVLAGTVSAAEGEALLQTVLTDTSMAKLSLPMSYYLFRALELSGMYDRSYGLWTRWMKQLELGLTTLPEIDSADTRSDCHAWSALPITEFTRGILGVRQDIDGIILQPHCGDLQYASGAVSTEQGLITVSWEITTEEGVEVFRLEAVWTPGSAITVILPNGEVQKSDTGRIEIDIRGFNC | 2.854% | 0.19 | 3.124% | 5.089%
2 | 1043 (protein, listed as Flavobacterium johnsoniae) MKLSLKTFFYTMLLFSFFHAFSQEKLVSPWPESSNINQPWARWWWMGSAVDKPNLKRSLIDFHKAGIGGVEITPIYGVKGEENNFIDYLSPKWMEMLDYTIHVSDSLKMQVDMVLGTGWPYGGSHVTLPHAATKLIVEKYTVKKNETFDRDITVDSSKEKTPASLLYVVAYGNDGSFVNLTNELQNKKVNVKDKGLEGSNIKLPNKLEPNKLNWKAKKADYTIYAVFSGKTGQQVKRAAPGGKGYTLDHYSEEALKAYVIPFNEALKGREGKIRAVFNDSFEVYGTDFTPNFFEEFQKLRGYDLKKQLPVLLNETDNEIGNRIRSDYRQTISDLLLNKFDKFWTNWAHSKNFKTKLQAHGSPGNLIDLYASADIPECETFGSMPFDIPGFRRDKEDIREGDADPVMLKFSSSAAHISGKNLVSSETFTWLREHFKTALSQCKPEAEDLMLNGVNHIFLHGSTYSPDRAVWPGWQFYASVNFNSNNTIWEDAPALFSYISNCQSLLQQGKPDNEILLYWPIFDAWDKYEKGTLFYQFKIHSLSDWLYGTSFYDTTKNLMKKGYSVDFISDNFIAEAKVVNGNIVLPGGNFKSLVIPSCKKMPVETLQKLIELKKAGACILFEGLPESVPGFKDYKKQEQNLKNLLAENKIQAVSNIFTSLEDAKILPESLVNTGLKSIRRDINGEKIYYLVNHTAKTIDDFIPLQVENKEIILLDPLTHESGNAIVNKKDKITYVKIKIEPGQSYFLKTENTASQKKWNYFESASEPIALKGNWKLSFDKGGPKLPADAVVSNLESWTKLSPDAEAFSGSAAYTLQFENPNPKIENWSLNLGDVRESAKVWLNDEFIGTAWSVPYKLNIQKLKPGKNVLKIQVTNLPANRIRDMELKGQEWKIFHEINMVDKDYKKFDATKWIPMPSGLLGPVTLTALKQEN | 2.791% | 0.15 | 3.119% | 5.098%
3 | 998 (protein, Rhodanobacter denitrificans) MLSIALAAALAAGAVAPDWHDGLDWHGVHVAISRDAQQGYTLAWPYGQRTIAAQPLATQTASPLFDGLFAMAQDDLKQDSVSAIRDGAFDHGQPIPCQCFETGLKWPYVWTRDLSYAIDLGLWRFDPARSRNGLKFKLSGVRVASAPQGPAPKRLYPMQDTGSGGSWPISTDRVVWFLGARHLLDDQAFADDVYRALDATLAQDRQYAFDAGFGLYRGETSFLDWREQSYPAWTADEVTFIAQSYALSTNVLHYQALQLAANLADTHHDAKAAAGYRADAAALKAAINAHFWRAERGMYMSYLSGDGTPYDSYDLLGIALAIDSGVAGGERAKQALANYPTWPAGSPVIWPERADQPIYHNRAIWPFVSAYALRAARLTEQPARIAHEIESVLRGAALYGSNMENYELLTQGQHVDEGKLSGPVVNSPRQLWSVAAALAVVTEGVFGLNEDGSVEPKLPTALVPMLFGQRRTITLDLHERQITLQLPEKISGNLLVADRTRTQGTATTVTLKAVQVPDAPLRTDAPLYAPLAPAAPVVQAAGNGWRVSAEGKVRLYLNGRAHGDIDGTATLPRQPGLTCFSATRVDAHGLESLHSPDTCVGETAKVNGSWPRRWTAPATGRYRVALDYANDHGPINTGITAAVKMLEVSCAGSDPQRLPIVMPHSVRAQRSTWGTFTAQAGSACRFALDDGFNMSYLAHFAHYTANNGSGGNGGSSGPLNQAEVHALLIAPLAADRGTP | 2.402% | 0.15 | 3.326% | 5.111%
4 | 1058 (protein, listed as Cyclobacterium marinum) MKLTTYYFCLIAGLCSLFTFGLHAQESAIYKQMRQNFQQPPNTAKPTVYHWWLGGDVDTVRLKEEILSFDKAGIAGFTIFEIGSRDTVFVGAGPEFLGEASLETIKVAVEEAGKYGMEVGLNTASSWNAGGNWLTPKHAAKSIYQRKVNVSGGGKEKIKLPFPDIPEKDPRGRKRLISYGKDGKPVYSEEIAVLAIPLVGENAAIDTSLIKDVSIYFDANKEVLNWDVPEGDWKIVRYVSSNSGENLVLPSKYSAGPIVDHFDADATAFHFNYIIDRLESKLGDLRKTSLKNLYMASYEARGFNWTPTLPQEFQELNGYDIKKFLPILFGEVSLSQEATAAFRAGFQRTLSELMIKNFYMKSKEICNAHGLKNNSEAGGPGYPLHDVPVEPLKALGKGLDIPRGEFWINHHNFSEEGMDVLRVVKEVSSASNIYGVGMVEMEAFTTFQQWQEGPYEMKPMGDRAFAEGMNRVVVHGSTHNPKGTGNPGIVYHAGTHYNDKRVWWKKVRPFNDYLARISYVLQEADFQSDVLYYYGDTIPNYGGHKRSRFNPGEGYDFELLNTEILFGLEVKNGKIINPRNGAEFKVLALTKEHEINPKVLSKLEQMASSGAIITGPKPNRIAPERNMKELPNMNGWLDNLWKPFSKQSFKPGSKAIYYNVSVGEILKALELSPDFSYKGNGFYTLDYTHYQKGDMDFYFIVNTTGEWLSRDLIFRQEGKVPELWNPENGNISPIPIYKETEEGISLPLSLAPHESAFVVFKPGIKPVHFTKIAHGGIHPPKVRYSDQGIEFWEEGEFGLGHGEDTLILNNFPNVKSLEGAWEIYFPEGWGAPDKAIFPELKSWTESENEGIKYFSGTARYEKKFIHEMHASEYPEAKIYLDLGDLSHVAEVWLNDKPLGITWSKPYRFDVTEAIKPGINTLKIEVANTWSNRLTGDAITGKDYTQTHVNNTVIKGMPNFRVTWENAPLIPSGILGPVTLTTVLPIAMPK | 2.398% | 0.17 | 3.144% | 5.121%
5 | 1024 (protein, Bacteroides thetaiotaomicron) MKRTLLLTFLLLSVSALCFSQKLVEVAKGYSCTSVNTTIFRNNSLVTHGDEQYISYYDADGYLVLGKRKLNSKQWTLHRTQYRGNVKDAHNIISIMVDGEGYLHVSFDHHGHKLNYCRSIAPGSLELGDKMPMTGVDEGNVTYPEFYPLTDGDLLFVYRSGSSGRGNLVMNRYSLKDHKWARVQDVLIDGEDKRNAYWQLYVDEKGTIHLSWVWRETWQVETNHDLCYARSFDNGVTWYKSDGEQYKLPITASNAEYACRIPQNSELINQTSMSADAGGNPYIATYWRSSDSEVPQYRIVWNDGKTWHNRQVTDRKTPFTLKGGGTKMIPVARPRIVVEDGEIFYIFRDEERGSRVSMAHTADVANGKWIVTDLTDFSVDAWEPSHDTELWKKQRKLNLFVQHTCQGDGERTAEIEPQMIYVLEANTNTKK | 2.806% | 0.17 | 2.924% | 5.145%
